Results taken from US20020016443A1, “Antiproliferative factor” (priority 1996, published 2002).

Tested on: APF activity on primary normal bladder epithelial cells
Assay: Blocking of APF antiproliferative activity by recombinant growth factors (^3H-thymidine incorporation)
Assay type: cell-based, human
Protocol: ^3H-Thymidine Incorporation. Primary normal adult human bladder epithelial cells (HBE) were grown from biopsies obtained at autopsy from patients who had no history of bladder disorder. HBE cells were plated at a density of 1×10^4 cells/well onto 96 well tissue culture plates and incubated at 37° C. overnight (resulting in approximately 60% confluence the following day). The medium was then changed to MEM containing only 1% glutamine and 1% antibiotic/ antimycotic solution, and the cells were incubated at 37° C. overnight. […] Cells were then trypsinized, and insoluble cell contents harvested and methanol-fixed onto glass fiber filter paper, as previously described^62; the amount of radioactivity incorporated was determined as counts per minute using a Beckman LS 3801 scintillation counter. […]
To determine whether the antiproliferative effect of the APF on bladder epithelial cells might be due to a decrease in HB-EGF production, primary normal bladder epithelial cells were simultaneously incubated with varying levels of recombinant HB-EGF, EGF, or IGF1 and low molecular weight urine fractions from IC patients. […] This effect was evident using a concentration of HB-EGF (10 ng/ml) in the range previously determined for normal controls (2-22 ng/ml, mean 6.33 ng/ml) 12 as well as higher concentrations (30 and 100 ng/ml). […]

B1: heparin-binding epidermal growth factor-like growth factor (protein, UniProt Q99075 63-148, looked up)
Heparin-binding EGF-like …: DLQEADLDLLRVTLSSKPQALATPNKEEHGKRKKKGKGLGKKRDPCLRKYKDFCIHGECKYVKELRAPSCICHPGYHGERCHGLSL
- inhibition of antiproliferative activity of HPLC-purified APF (10 ng purified APF, 30 ng/ml of HB-EGF, normal and IC patient cells): inhibited for 2 of 3 APF specimens
- inhibition of IC urine antiproliferative activity by recombinant growth factor (co-incubation with low molecular weight IC urine fractions, HB-EGF 10, 30 and 100 ng/ml, EGF, IGF1 up to about 12 and 25 fold normal levels): inhibited by HB-EGF in a dose-dependent manner
